Data taken from the supplement of paper PMC6757056.
± gives the standard deviation of the averaged measurements.

B1: library; a variant is named by its letters at N, in order (parent)
chain: GCUGUCACCGGUGCUUGGUACGUUAUAUUCAGCCGGUCUGAUGAGUCUNNNNNNAGACGAAACAGC

Tests used:
(6R,S)-folinic acid [1] = variants of: B1; test: normalized RNA/DNA level without ligand (relative to sTRSVctl = 100) (log10 (% of sTRSVctl)); HEK293T overexpressing SLC46A1; higher = less ribozyme self-cleavage, higher mRNA level; conditions: without (6R,S)-folinic acid; ligand present: no
Summary of the method: (§1)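 For each 6-well well, 4 µg of library plasmid encoding mCherry-linked ribozyme switches, or eGFP-linked ones in some ligand experiments, was transfected into HEK293T. Any ligand was added 1 h before transfection, and RNA was extracted with EDTA 72 h after it, then reverse-transcribed, amplified, barcoded and sequenced. RNA level was obtained by dividing RNA reads by DNA reads, normalizing to a spiked-in non-cleaving sequence or to the top sequences, then scaling and log-transforming. The top set was 25 sequences, scaling was ×100 with log10, and ≥100 DNA reads were required.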

(6R,S)-folinic acid [2] = variants of: B1; test: normalized RNA/DNA level with ligand (relative to sTRSVctl = 100) (log10 (% of sTRSVctl)); HEK293T overexpressing SLC46A1; ligand concentration (+) RNA-Seq: 6 mM; higher = less ribozyme self-cleavage, higher mRNA level; conditions: with (6R,S)-folinic acid; ligand present: yes
Summary of the method: as §1

Variant	normalized RNA/DNA level without ligand (log10) ((6R,S)-folinic acid [1])	normalized RNA/DNA level with ligand (log10) ((6R,S)-folinic acid [2])
GCUGUCACCGGUGCUUGGUACGUUAUAUUCAGCCGGUCUGAUGAGUCUAGUACCAGACGAAACAGC	2.07 ± 0.0045	2.04 ± 0.044
GCUGUCACCGGUGCUUGGUACGUUAUAUUCAGCCGGUCUGAUGAGUCUAGUACUAGACGAAACAGC	2.008 ± 0.0088	2.02 ± 0.043
GCUGUCACCGGUGCUUGGUACGUUAUAUUCAGCCGGUCUGAUGAGUCUAGUACAAGACGAAACAGC	1.983 ± 0.0056	2 ± 0.038
GCUGUCACCGGUGCUUGGUACGUUAUAUUCAGCCGGUCUGAUGAGUCUUGUAACAGACGAAACAGC	1.95 ± 0.034	1.99 ± 0.038
GCUGUCACCGGUGCUUGGUACGUUAUAUUCAGCCGGUCUGAUGAGUCUGGUAGGAGACGAAACAGC	1.933 ± 0.013	1.99 ± 0.042
GCUGUCACCGGUGCUUGGUACGUUAUAUUCAGCCGGUCUGAUGAGUCUGGUAGCAGACGAAACAGC	1.923 ± 0.015	2.017 ± 0.013
GCUGUCACCGGUGCUUGGUACGUUAUAUUCAGCCGGUCUGAUGAGUCUGGUAGAAGACGAAACAGC	1.995 ± 0.01	2.01 ± 0.022
GCUGUCACCGGUGCUUGGUACGUUAUAUUCAGCCGGUCUGAUGAGUCUUGGUUUAGACGAAACAGC	1.95 ± 0.021	1.97 ± 0.026
GCUGUCACCGGUGCUUGGUACGUUAUAUUCAGCCGGUCUGAUGAGUCUGGUAUCAGACGAAACAGC	2.011 ± 0.008	2.0104 ± 0.001
GCUGUCACCGGUGCUUGGUACGUUAUAUUCAGCCGGUCUGAUGAGUCUGGUAUUAGACGAAACAGC	2.002 ± 0.014	1.98 ± 0.032
GCUGUCACCGGUGCUUGGUACGUUAUAUUCAGCCGGUCUGAUGAGUCUUGUACAAGACGAAACAGC	1.958 ± 0.018	2 ± 0.051
GCUGUCACCGGUGCUUGGUACGUUAUAUUCAGCCGGUCUGAUGAGUCUUGUACGAGACGAAACAGC	1.772 ± 0.0054	1.98 ± 0.038
GCUGUCACCGGUGCUUGGUACGUUAUAUUCAGCCGGUCUGAUGAGUCUUGUACCAGACGAAACAGC	2.019 ± 0.0028	2.03 ± 0.057
GCUGUCACCGGUGCUUGGUACGUUAUAUUCAGCCGGUCUGAUGAGUCUCGUAAGAGACGAAACAGC	2.011 ± 0.0091	2.03 ± 0.018
GCUGUCACCGGUGCUUGGUACGUUAUAUUCAGCCGGUCUGAUGAGUCUCGUAACAGACGAAACAGC	1.98 ± 0.025	1.99 ± 0.043
GCUGUCACCGGUGCUUGGUACGUUAUAUUCAGCCGGUCUGAUGAGUCUAGUAGCAGACGAAACAGC	1.986 ± 8.8e-05	2 ± 0.039
GCUGUCACCGGUGCUUGGUACGUUAUAUUCAGCCGGUCUGAUGAGUCUAGUAGGAGACGAAACAGC	1.897 ± 0.0057	2.02 ± 0.021
GCUGUCACCGGUGCUUGGUACGUUAUAUUCAGCCGGUCUGAUGAGUCUAGUAGUAGACGAAACAGC	1.943 ± 0.0095	2.012 ± 0.019
GCUGUCACCGGUGCUUGGUACGUUAUAUUCAGCCGGUCUGAUGAGUCUAGUAGAAGACGAAACAGC	1.943 ± 0.0031	2.018 ± 0.0096
GCUGUCACCGGUGCUUGGUACGUUAUAUUCAGCCGGUCUGAUGAGUCUCGUAUCAGACGAAACAGC	2.09 ± 0.0065	2.07 ± 0.023
GCUGUCACCGGUGCUUGGUACGUUAUAUUCAGCCGGUCUGAUGAGUCUCGUAUGAGACGAAACAGC	2.016 ± 0.012	2.01 ± 0.016

Variant	normalized RNA/DNA level without ligand (log10) ((6R,S)-folinic acid [1])	normalized RNA/DNA level with ligand (log10) ((6R,S)-folinic acid [2])
GCUGUCACCGGUGCUUGGUACGUUAUAUUCAGCCGGUCUGAUGAGUCUGGUACUAGACGAAACAGC	2.063 ± 0.0044	2.04 ± 0.022
GCUGUCACCGGUGCUUGGUACGUUAUAUUCAGCCGGUCUGAUGAGUCUGGUACGAGACGAAACAGC	2.025 ± 0.017	2.04 ± 0.049
GCUGUCACCGGUGCUUGGUACGUUAUAUUCAGCCGGUCUGAUGAGUCUGGUACCAGACGAAACAGC	2.067 ± 0.015	2.03 ± 0.04
GCUGUCACCGGUGCUUGGUACGUUAUAUUCAGCCGGUCUGAUGAGUCUCGUACCAGACGAAACAGC	2.1 ± 0.0079	2.021 ± 0.016
GCUGUCACCGGUGCUUGGUACGUUAUAUUCAGCCGGUCUGAUGAGUCUCGUACGAGACGAAACAGC	2.018 ± 0.011	2.0285 ± 0.0013
GCUGUCACCGGUGCUUGGUACGUUAUAUUCAGCCGGUCUGAUGAGUCUCGUACAAGACGAAACAGC	2.01 ± 0.0077	2.041 ± 0.02
GCUGUCACCGGUGCUUGGUACGUUAUAUUCAGCCGGUCUGAUGAGUCUCGUACUAGACGAAACAGC	2.0544 ± 0.00062	2.043 ± 0.0063
GCUGUCACCGGUGCUUGGUACGUUAUAUUCAGCCGGUCUGAUGAGUCUAGUAUAAGACGAAACAGC	1.9846 ± 0.0011	2.02 ± 0.0084
GCUGUCACCGGUGCUUGGUACGUUAUAUUCAGCCGGUCUGAUGAGUCUAGUAUCAGACGAAACAGC	2.059 ± 0.0016	2.03 ± 0.0073
GCUGUCACCGGUGCUUGGUACGUUAUAUUCAGCCGGUCUGAUGAGUCUUGUAUAAGACGAAACAGC	1.953 ± 0.0013	2.01 ± 0.022
GCUGUCACCGGUGCUUGGUACGUUAUAUUCAGCCGGUCUGAUGAGUCUGGUAACAGACGAAACAGC	1.99 ± 0.041	2.005 ± 0.012
GCUGUCACCGGUGCUUGGUACGUUAUAUUCAGCCGGUCUGAUGAGUCUUGUAGAAGACGAAACAGC	1.84 ± 0.021	2.002 ± 0.017
GCUGUCACCGGUGCUUGGUACGUUAUAUUCAGCCGGUCUGAUGAGUCUUGUAGUAGACGAAACAGC	1.903 ± 0.015	2.06 ± 0.059
GCUGUCACCGGUGCUUGGUACGUUAUAUUCAGCCGGUCUGAUGAGUCUAGUAACAGACGAAACAGC	2.003 ± 0.0042	2.01 ± 0.026
GCUGUCACCGGUGCUUGGUACGUUAUAUUCAGCCGGUCUGAUGAGUCUAGUAAGAGACGAAACAGC	1.897 ± 0.0041	2.01 ± 0.057
GCUGUCACCGGUGCUUGGUACGUUAUAUUCAGCCGGUCUGAUGAGUCUAGUAAUAGACGAAACAGC	1.99 ± 0.02	2 ± 0.026
GCUGUCACCGGUGCUUGGUACGUUAUAUUCAGCCGGUCUGAUGAGUCUCGUAGUAGACGAAACAGC	2.011 ± 0.0076	2 ± 0.034
GCUGUCACCGGUGCUUGGUACGUUAUAUUCAGCCGGUCUGAUGAGUCUCGUAGAAGACGAAACAGC	1.9919 ± 0.00011	1.99 ± 0.043
GCUGUCACCGGUGCUUGGUACGUUAUAUUCAGCCGGUCUGAUGAGUCUCGUAGCAGACGAAACAGC	2.03 ± 0.023	2.03 ± 0.022
GCUGUCACCGGUGCUUGGUACGUUAUAUUCAGCCGGUCUGAUGAGUCUCGUAGGAGACGAAACAGC	1.829 ± 0.015	1.979 ± 0.013
